The results in this text go back to the supplement of paper PMC5998384.

In series [1] the test system is HeLa Kyoto. Kind of series: solubility change mitosis vs G1/S (difference of NP-40 vs SDS log2 ratios) (log2 ratio difference); higher = more soluble in mitosis.
Series [2] concerns HeLa Kyoto. Kind of series: thermal stability score vs G1/S (z-score of summed log2 fold changes over temperatures); higher = more thermally stable than in G1/S.
The test system of series [3] is HeLa Kyoto. As to the kind of experiment: solubility in G1/S (NP-40 vs SDS abundance) (log2 ratio); higher = more soluble. As to conditions: cell cycle stage: G1/S.
In series [4] the test system is HeLa Kyoto. As to the kind of experiment: melting temperature (median over replicates), in situ; higher = more thermally stable.
Where [5] appears, read: cell cycle stage: early G1 (4.5 h after nocodazole release).
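Wherever melting temperature (median over replicates), in situ is given: HeLa Kyoto cells synchronized by double thymidine or nocodazole block, proteins quantified by TMT10plex mass spectrometry, three independent biological replicates.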
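Wherever solubility change mitosis vs G1/S (difference of NP-40 vs SDS log2 ratios) is given: synchronized HeLa Kyoto cells (double thymidine block for G1/S, nocodazole release for mitosis), protein amounts in NP-40 versus SDS lysates quantified by mass spectrometry, three biological replicates.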
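Wherever solubility in G1/S (NP-40 vs SDS abundance) is given: HeLa Kyoto cells arrested at G1/S by double thymidine block, proteins quantified by TMT10plex mass spectrometry in mild NP-40 versus SDS extracts, three biological replicates.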
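Wherever thermal stability score vs G1/S (z-score of summed log2 fold changes over temperatures) is given: synchronized HeLa Kyoto cells, proteins quantified by TMT10plex mass spectrometry, three biological replicates, mitosis taken 0.5 h after nocodazole release, G1/S directly after double thymidine block.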

As for “MTTETGPDSEVKKAQEEAPQQPEAAAAVTTPVTPAGHGHPEANSNEKHPSQQDTRPAEQSLDMEEKDYSEADGLSERTTPSKAQKSPQKIAKKYKSAICRVTLLDASEYECEVEKHGRGQVLFDLVCEHLNLLEKDYFGLTFCDADSQKNWLDPSKEIKKQIRSSPWNFAFTVKFYPPDPAQLTEDITRYYLCLQLRADIITGRLPCSFVTHALLGSYAVQAELGDYDAEEHVGNYVSELRFAPNQTRELEERIMELHKTYRGMTPGEAEIHFLENAKKLSMYGVDLHHAKDSEGIDIMLGVCANGLLIYRDRLRINRFAWPKILKISYKRSNFYIKIRPGEYEQFESTIGFKLPNHRSAKRLWKVCIEHHTFFRLVSPEPPPKGFLVMGSKFRYSGRTQAQTRQASALIDRPAPFFERSSSKRYTMSRSLDGAEFSRPASVSENHDAGPDGDKRDEDGESGGQRSEAEEGEVRTPTKIKELKPEQETTPRHKQEFLDKPEDVLLKHQASINELKRTLKEPNSKLIHRDRDWERERRLPSSPASPSPKGTPEKANERAGLREGSEEKVKPPRPRAPESDTGDEDQDQERDTVFLKDNHLAIERKCSSITVSSTSSLEAEVDFTVIGDYHGSAFEDFSRSLPELDRDKSDSDTEGLLFSRDLNKGAPSQDDESGGIEDSPDRGACSTPDMPQFEPVKTETMTVSSLAIRKKIEPEAVLQTRVSAMDNTQQVDGSASVGREFIATTPSITTETISTTMENSLKSGKGAAAMIPGPQTVATEIRSLSPIIGKDVLTSTYGATAETLSTSTTTHVTKTVKGGFSETRIEKRIIITGDEDVDQDQALALAIKEAKLQHPDMLVTKAVVYRETDPSPEERDKKPQES [EPB41L1]”, the “solubility change mitosis (log2)” value with HeLa Kyoto [1] was -0.0516. Further, the figures for the thermal stability score in the series with HeLa Kyoto [2] (setting [5]) and in the series with HeLa Kyoto [2] (cell cycle stage: mitosis) were 0.332 and 0.235, respectively. Besides, the “solubility in G1/S (log2)” value in the series on HeLa Kyoto [3] was -0.0349. Besides, the melting temperature worked out at 49.6 °C with HeLa Kyoto [4] (cell cycle stage: G1/S) and 50 °C with HeLa Kyoto [4] (cell cycle stage: mitosis).

Consider “MTTPALLPLSGRRIPPLNLGPPSFPHHRATLRLSEKFILLLILSAFITLCFGAFFFLPDSSKHKRFDLGLEDVLIPHVDAGKGAKNPGVFLIHGPDEHRHREEEERLRNKIRADHEKALEEAKEKLRKSREEIRAEIQTEKNKVVQEMKIKENKPLPPVPIPNLVGIRGGDPEDNDIREKREKIKEMMKHAWDNYRTYGWGHNELRPIARKGHSPNIFGSSQMGATIVDALDTLYIMGLHDEFLDGQRWIEDNLDFSVNSEVSVFEVNIRFIGGLLAAYYLSGEEIFKIKAVQLAEKLLPAFNTPTGIPWAMVNLKSGVGRNWGWASAGSSILAEFGTLHMEFIHLSYLTGDLTYYKKVMHIRKLLQKMDRPNGLYPNYLNPRTGRWGQYHTSVGGLGDSFYEYLLKAWLMSDKTDHEARKMYDDAIEAIEKHLIKKSRGGLTFIGEWKNGHLEKKMGHLACFAGGMFALGADGSRADKAGHYLELGAEIARTCHESYDRTALKLGPESFKFDGAVEAVAVRQAEKYYILRPEVIETYWYLWRFTHDPRYRQWGWEAALAIEKYCRVNGGFSGVKDVYSSTPTHDDVQQSFFLAETLKYLYLLFSGDDLLPLDHWVFNTEAHPLPVLHLANTTLSGNPAVR [MAN1A2]”, for which the “solubility change mitosis (log2)” value in the series on HeLa Kyoto [1] is -0.0976. In addition, the results for the thermal stability score in the series with HeLa Kyoto [2] (setting [5]) and in the series on HeLa Kyoto [2] (cell cycle stage: mitosis) were -0.726 and -1.7, respectively. Further, the “solubility in G1/S (log2)” value in the series on HeLa Kyoto [3] was -0.0642. The melting temperature with HeLa Kyoto [4] (cell cycle stage: G1/S) is 54.1 °C; in the series with HeLa Kyoto [4] (cell cycle stage: mitosis), 54.3 °C.

For the sequence “MTTYLEFIQQNEERDGVRFSWNVWPSSRLEATRMVVPVAALFTPLKERPDLPPIQYEPVLCSRTTCRAVLNPLCQVDYRAKLWACNFCYQRNQFPPSYAGISELNQPAELLPQFSSIEYVVLRGPQMPLIFLYVVDTCMEDEDLQALKESMQMSLSLLPPTALVGLITFGRMVQVHELGCEGISKSYVFRGTKDLSAKQLQEMLGLSKVPLTQATRGPQVQQPPPSNRFLQPVQKIDMNLTDLLGELQRDPWPVPQGKRPLRSSGVALSIAVGLLECTFPNTGARIMMFIGGPATQGPGMVVGDELKTPIRSWHDIDKDNAKYVKKGTKHFEALANRAATTGHVIDIYACALDQTGLLEMKCCPNLTGGYMVMGDSFNTSLFKQTFQRVFTKDMHGQFKMGFGGTLEIKTSREIKISGAIGPCVSLNSKGPCVSENEIGTGGTCQWKICGLSPTTTLAIYFEVVNQHNAPIPQGGRGAIQFVTQYQHSSGQRRIRVTTIARNWADAQTQIQNIAASFDQEAAAILMARLAIYRAETEEGPDVLRWLDRQLIRLCQKFGEYHKDDPSSFRFSETFSLYPQFMFHLRRSSFLQVFNNSPDESSYYRHHFMRQDLTQSLIMIQPILYAYSFSGPPEPVLLDSSSILADRILLMDTFFQILIYHGETIAQWRKSGYQDMPEYENFRHLLQAPVDDAQEILHSRFPMPRYIDTEHGGSQARFLLSKVNPSQTHNNMYAWGQESGAPILTDDVSLQVFMDHLKKLAVSSAA [SEC23A]”, the “solubility change mitosis (log2)” value with HeLa Kyoto [1] is -0.0745. In addition, the thermal stability score in the series on HeLa Kyoto [2] (setting [5]) was -0.157; in the series on HeLa Kyoto [2] (cell cycle stage: mitosis), 0.129. The “solubility in G1/S (log2)” value with HeLa Kyoto [3] is -0.0681. In addition, the melting temperature in the series on HeLa Kyoto [4] (cell cycle stage: G1/S) turned out to be 50 °C; in the series with HeLa Kyoto [4] (cell cycle stage: mitosis) it was 50.2 °C.

For the sequence “MVAACRSVAGLLPRRRRCFPARAPLLRVALCLLCWTPAAVRAVPELGLWLETVNDKSGPLIFRKTMFNSTDIKLSVKSFHCSGPVKFTIVWHLKYHTCHNEHSNLEELFQKHKLSVDEDFCHYLKNDNCWTTKNENLDCNSDSQVFPSLNNKELINIRNVSNQERSMDVVARTQKDGFHIFIVSIKTENTDASWNLNVSLSMIGPHGYISASDWPLMIFYMVMCIVYILYGILWLTWSACYWKDILRIQFWIAAVIFLGMLEKAVFYSEYQNISNTGLSTQGLLIFAELISAIKRTLARLLVIIVSLGYGIVKPRLGTVMHRVIGLGLLYLIFAAVEGVMRVIGGSNHLAVVLDDIILAVIDSIFVWFIFISLAQTMKTLRLRKNTVKFSLYRHFKNTLIFAVLASIVFMGWTTKTFRIAKCQSDWMERWVDDAFWSFLFSLILIVIMFLWRPSANNQRYAFMPLIDDSDDEIEEFMVTSENLTEGIKLRASKSVSNGTAKPATSENFDEDLKWVEENIPSSFTDVALPVLVDSDEEIMTRSEMAEKMFSSEKIM [TMEM87B]”, in the series on HeLa Kyoto [1], the “solubility change mitosis (log2)” value was -0.177. For the same sequence, the thermal stability score with HeLa Kyoto [2] (setting [5]) was -3.16; in the series with HeLa Kyoto [2] (cell cycle stage: mitosis), -3.29. Besides, in the series with HeLa Kyoto [3], the “solubility in G1/S (log2)” value is -0.12. The melting temperature with HeLa Kyoto [4] (cell cycle stage: G1/S) was determined as 55.1 °C; in the series with HeLa Kyoto [4] (cell cycle stage: mitosis), 54.9 °C.
